Results as given in US20210196796A1 (SYNTHEKINE, published 2021).
Residue numbers refer to the chain shown, from its start. Numbers in names are those of the source.

T1: orthogonal hCD122 receptor (hoRb), hCD122 with H133D and Y134F (human, UniProt P14784 27-550)
T1 sequence: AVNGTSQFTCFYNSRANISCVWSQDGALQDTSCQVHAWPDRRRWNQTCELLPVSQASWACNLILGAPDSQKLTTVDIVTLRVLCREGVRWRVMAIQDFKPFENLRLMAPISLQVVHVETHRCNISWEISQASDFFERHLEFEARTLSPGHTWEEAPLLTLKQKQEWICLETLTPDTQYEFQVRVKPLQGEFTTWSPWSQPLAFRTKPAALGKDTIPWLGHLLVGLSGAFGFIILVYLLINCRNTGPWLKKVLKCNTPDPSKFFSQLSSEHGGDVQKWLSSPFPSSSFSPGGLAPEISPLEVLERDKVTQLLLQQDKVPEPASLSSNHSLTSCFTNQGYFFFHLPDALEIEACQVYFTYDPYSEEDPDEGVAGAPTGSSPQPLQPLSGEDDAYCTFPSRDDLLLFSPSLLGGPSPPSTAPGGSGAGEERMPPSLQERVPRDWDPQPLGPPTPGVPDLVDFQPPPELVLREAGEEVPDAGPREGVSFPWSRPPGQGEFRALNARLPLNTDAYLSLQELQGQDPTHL

B1: ΔT51, SQVLKA (ligand)
chain: APTSSSTKKTQLQLSQLLVLLKAILNGINNYKNPKLTRMLTFKFYMPKKAELKHLQCLEEELKPLEEVLNLAQSKNFHLRPRDLISNINVIVLELKGSETTFMCEYADETATIVEFLNRWITFCQSIISTLT
B2: Q13W SQVLKA (ligand)
chain: APTSSSTKKTQLWLSQLLVLLKAILNGINNYKNPKLTRMLTFKFYMPKKATELKHLQCLEEELKPLEEVLNLAQSKNFHLRPRDLISNINVIVLELKGSETTFMCEYADETATIVEFLNRWITFCQSIISTLT
B3: L80V, SQVLKA (ligand)
chain: B2 chain with W13Q, L80V
B4: H55Y, SQVLKA (ligand)
chain: B2 chain with W13Q, H55Y
B5: L80F, SQVLKA (ligand)
chain: B2 chain with W13Q, L80F
B6: Q74H, SQVLKA (ligand)
chain: B2 chain with W13Q, Q74H
B7: R81I, SQVLKA (ligand)
chain: B2 chain with W13Q, R81I
B8: T51I, SQVLKA (ligand)
chain: B2 chain with W13Q, T51I
B9: Q74N, SQVLKA (ligand)
chain: B2 chain with W13Q, Q74N
B10: Q74S, SQVLKA (ligand)
chain: B2 chain with W13Q, Q74S
B11: ΔR81, SQVLKA (ligand)
chain: APTSSSTKKTQLQLSQLLVLLKAILNGINNYKNPKLTRMLTFKFYMPKKATELKHLQCLEEELKPLEEVLNLAQSKNFHLPRDLISNINVIVLELKGSETTFMCEYADETATIVEFLNRWITFCQSIISTLT

Biological target: T1, orthogonal hCD122 receptor (hoRb), …
Assay: cell-based or functional assay
Throughout, for Relative Proliferation Fold Change 3F8 1:10: reference of the scale not given here.
Throughout, for Relative Proliferation Fold Change 3F8 1:2: reference of the scale not given here.
Throughout, for Relative Proliferation Fold Change 3F8 1:50: reference of the scale not given here.
Throughout, for Relative Proliferation Fold Change NKL 1:10: reference of the scale not given here.
Throughout, for Relative Proliferation Fold Change NKL 1:2: reference of the scale not given here.
Throughout, for Relative Proliferation Fold Change NKL 1:50: reference of the scale not given here.

Row | Binder | 3F8 Ortho Proliferation Signal 1:2 [cts/min] | 3F8 Ortho Proliferation Signal 1:10 [cts/min] | 3F8 Ortho Proliferation Signal 1:50 [cts/min] | Relative Proliferation Fold Change 3F8 1:2 [fold] | Relative Proliferation Fold Change 3F8 1:10 [fold] | Relative Proliferation Fold Change 3F8 1:50 [fold]
1 | B1 | 9940 | 7070 | 1060 | 59.1 | 8.73 | 2.17
2 | B2 | 27000 | 16900 | 6420 | 148 | 22.2 | 10.9
3 | B3 | 34900 | 34800 | 21200 | 30.6 | 38 | 32.7
4 | B4 | 24600 | 29500 | 16500 | 63 | 23.5 | 16.7
5 | B5 | 37200 | 26800 | 25800 | 1.01 | 2.8 | 16.8
6 | B6 | 35100 | 28700 | 21200 | 64.7 | 42.9 | 53
7 | B7 | 40000 | 46000 | 20900 | 55.9 | 48.8 | 49.4
8 | B8 | 31900 | 20200 | 11600 | 111 | 43.1 | 15.6
9 | B9 | 34200 | 36400 | 21900 | 116 | 96.8 | 17.5
10 | B10 | 36400 | 32500 | 27100 | 18.7 | 56.7 | 33.8
11 | B11 | 28600 | 32200 | 22000 | 46.4 | 39 | 24

Biological target: T1, orthogonal hCD122 receptor (hoRb), …
Assay: cell-based or functional assay
Remark: another data set of the same source

Row | Binder | NKL Ortho Proliferation Signal 1:2 | NKL Ortho Proliferation Signal 1:10 | NKL Ortho Proliferation Signal 1:50 | Relative Proliferation Fold Change NKL 1:2 [fold] | Relative Proliferation Fold Change NKL 1:10 [fold] | Relative Proliferation Fold Change NKL 1:50 [fold]
12 | B1 | 12100 | 10100 | 7780 | 1 | 0.71 | 0.58
13 | B2 | 13700 | 12900 | 8730 | 1.24 | 0.84 | 0.63
14 | B3 | 62500 | 51600 | 24300 | 4.26 | 3.13 | 1.58
15 | B4 | 47100 | 37100 | 17800 | 3.72 | 2.34 | 1.22
16 | B5 | 61200 | 67800 | 33200 | 4.24 | 4.14 | 2.27
17 | B6 | 58300 | 50300 | 23000 | 3.89 | 3.18 | 1.6
18 | B7 | 52800 | 58000 | 27300 | 3.84 | 3.85 | 1.92
19 | B8 | 50800 | 37900 | 18500 | 3.57 | 2.64 | 1.4
20 | B9 | 55100 | 47400 | 22600 | 4.23 | 3.18 | 1.67
21 | B10 | 54600 | 65700 | 35000 | 4.07 | 4.17 | 2.44
22 | B11 | 62400 | 68800 | 31900 | 4.84 | 4.09 | 2.1
